Assay results as given in publication PMC8397269 (Science Advances, 2021).

T1: His-lamin B1, full length (human, UniProt P20700 1-586)
T1 sequence (looked up): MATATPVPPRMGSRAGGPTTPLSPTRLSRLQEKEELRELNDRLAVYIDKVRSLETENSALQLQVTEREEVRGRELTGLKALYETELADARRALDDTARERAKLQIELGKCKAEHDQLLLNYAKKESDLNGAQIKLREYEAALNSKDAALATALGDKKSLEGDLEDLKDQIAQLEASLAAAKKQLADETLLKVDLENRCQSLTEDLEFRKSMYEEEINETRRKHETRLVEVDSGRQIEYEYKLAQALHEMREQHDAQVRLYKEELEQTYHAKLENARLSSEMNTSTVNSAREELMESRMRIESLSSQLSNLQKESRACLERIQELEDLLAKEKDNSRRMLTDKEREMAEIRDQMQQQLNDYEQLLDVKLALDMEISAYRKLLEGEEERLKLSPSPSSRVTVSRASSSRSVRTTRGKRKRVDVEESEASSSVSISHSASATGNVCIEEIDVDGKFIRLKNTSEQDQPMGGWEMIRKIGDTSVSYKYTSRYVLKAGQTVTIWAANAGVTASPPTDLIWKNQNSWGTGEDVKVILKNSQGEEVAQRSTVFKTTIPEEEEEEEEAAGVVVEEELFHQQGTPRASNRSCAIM


Legend:
[1] = biological target: T1, His-lamin B1, full length; experiment: pull-down
His-IRIF 53BP1 = His-IRIF 53BP1 (human, UniProt Q12888 1222-1659); experiment: pull-down

Row | binding result [1] | binding result (His-IRIF 53BP1) | Binder
1 | binds |  | GST-53BP1 IRIF (domain or fragment, human, UniProt Q12888 1222-1659, looked up) EEEFDMPQPPHGHVLHRHMRTIREVRTLVTRVITDVYYVDGTEVERKVTEETEEPIVECQECETEVSPSQTGGSSGDLGDISSFSSKASSLHRTSSGTSLSAMHSSGSSGKGAGPLRGKTSGTEPADFALPSSRGGPGKLSPRKGVSQTGTPVCEEDGDAGLGIRQGGKAPVTPRGRGRRGRPPSRTTGTRETAVPGPLGIEDISPNLSPDDKSFSRVVPRVPDSTRRTDVGAGALRRSDSPEIPFQAAAGPSDGLDASSPGNSFVGLRVVAKWSSNGYFYSGKITRDVGAGKYKLLFDDGYECDVLGKDILLCDPIPLDTEVTALSEDEYFSAGVVKGHRKESGELYYSIEKEGQRKWYKRMAVILSLEQGNRLREQYGLGPYEAVTPLTKAADISLDNLVEGKRKRRSNVSSPATPTASSSSSTTPTRKITESPRA
2 |  | binds | GST-Nterm lamin B1 (domain or fragment, human, UniProt P20700 1-424, looked up) MATATPVPPRMGSRAGGPTTPLSPTRLSRLQEKEELRELNDRLAVYIDKVRSLETENSALQLQVTEREEVRGRELTGLKALYETELADARRALDDTARERAKLQIELGKCKAEHDQLLLNYAKKESDLNGAQIKLREYEAALNSKDAALATALGDKKSLEGDLEDLKDQIAQLEASLAAAKKQLADETLLKVDLENRCQSLTEDLEFRKSMYEEEINETRRKHETRLVEVDSGRQIEYEYKLAQALHEMREQHDAQVRLYKEELEQTYHAKLENARLSSEMNTSTVNSAREELMESRMRIESLSSQLSNLQKESRACLERIQELEDLLAKEKDNSRRMLTDKEREMAEIRDQMQQQLNDYEQLLDVKLALDMEISAYRKLLEGEEERLKLSPSPSSRVTVSRASSSRSVRTTRGKRKRVDVEES
3 |  | binds | GST-Head-Coil1 lamin B1 (domain or fragment, human, UniProt P20700 1-243, looked up) MATATPVPPRMGSRAGGPTTPLSPTRLSRLQEKEELRELNDRLAVYIDKVRSLETENSALQLQVTEREEVRGRELTGLKALYETELADARRALDDTARERAKLQIELGKCKAEHDQLLLNYAKKESDLNGAQIKLREYEAALNSKDAALATALGDKKSLEGDLEDLKDQIAQLEASLAAAKKQLADETLLKVDLENRCQSLTEDLEFRKSMYEEEINETRRKHETRLVEVDSGRQIEYEYKLA
